Source: patent US20260274985A1 (MYTHIC THERAPEUTICS, published 2026)

Legend:
[1] = molecular target: T1, TROP2 on TROP2-positive NCI-H1975 cells (human, UniProt P09758 27-323); assay: cell-based or functional assay
T1 sequence: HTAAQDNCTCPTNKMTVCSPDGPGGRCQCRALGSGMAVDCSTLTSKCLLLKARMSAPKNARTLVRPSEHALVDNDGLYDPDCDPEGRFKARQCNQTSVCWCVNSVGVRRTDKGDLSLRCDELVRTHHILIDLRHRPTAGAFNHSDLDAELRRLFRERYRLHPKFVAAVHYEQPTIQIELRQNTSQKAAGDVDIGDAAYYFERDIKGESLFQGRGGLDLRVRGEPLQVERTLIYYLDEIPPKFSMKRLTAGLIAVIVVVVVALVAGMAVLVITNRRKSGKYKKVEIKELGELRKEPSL

[2] = molecular target: T2, Human TROP2 Protein, His Tag (Acro Biosystems) (human, UniProt P09758 27-274); assay: BLI (Octet) [2/2]
T2 construct: not shown: His tag
T2 sequence (looked up): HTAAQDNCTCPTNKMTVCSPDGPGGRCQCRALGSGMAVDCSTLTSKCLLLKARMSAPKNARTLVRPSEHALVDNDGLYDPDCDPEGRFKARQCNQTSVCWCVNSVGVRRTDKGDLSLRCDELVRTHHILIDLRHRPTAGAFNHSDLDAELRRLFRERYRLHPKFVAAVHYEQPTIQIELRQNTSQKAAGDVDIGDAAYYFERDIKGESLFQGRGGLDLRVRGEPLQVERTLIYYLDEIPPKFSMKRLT

[3] = molecular target: T3, Human TROP2 Protein, His Tag (Acro Biosystems) (human, UniProt P09758 27-274); assay: BLI (Octet)
T3 construct: Bought protein; also called TACSTD2; not shown: His tag
T3 sequence: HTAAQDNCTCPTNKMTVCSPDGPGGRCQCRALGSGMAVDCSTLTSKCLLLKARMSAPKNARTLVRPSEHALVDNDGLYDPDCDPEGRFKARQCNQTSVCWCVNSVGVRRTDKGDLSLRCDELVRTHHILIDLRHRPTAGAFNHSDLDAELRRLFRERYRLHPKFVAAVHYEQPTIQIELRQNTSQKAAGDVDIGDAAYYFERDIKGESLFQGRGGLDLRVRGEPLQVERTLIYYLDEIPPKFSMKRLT

[4] = molecular target: T4, Human TROP2 Protein, His Tag (human, UniProt P09758 27-274); assay: BLI (Octet)
T4 construct: Bought protein; also called TACSTD2; not shown: His tag
T4 sequence (looked up): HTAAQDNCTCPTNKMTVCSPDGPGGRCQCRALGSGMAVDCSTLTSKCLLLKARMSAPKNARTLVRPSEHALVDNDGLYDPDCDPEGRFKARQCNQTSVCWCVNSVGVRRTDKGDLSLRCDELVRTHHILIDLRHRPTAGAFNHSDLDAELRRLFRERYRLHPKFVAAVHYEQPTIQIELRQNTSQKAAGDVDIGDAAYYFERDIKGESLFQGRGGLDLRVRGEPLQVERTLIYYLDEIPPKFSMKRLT

B1: MYT11766 (antibody, human IgG1, V domains shown)
VH: QVQLQESGPGLVKPSETLSLTCTVSGGSISSYGVHWIRQPPGKGLEWIGVIWTSGVTDYNSALMGRVTISVDTSKNQFSLKLSSVTAADTAVYYCARDGDYDRYTMDYWGQGTLVTVSS
VL: DIVMTQSPDSLAVSLGERATINCRASKSVSTSGYSYMHWYQQKPGQPPKLLIYLASNLESGVPDRFSGSGSGTDFTLTISSLQAEDVAVYYCHHSRELPYTFGQGTKLEIK
With B1 as the binder, how does the “cytotoxicity on TROP2-positive NCI-H1975 cells (antibody complexed to secondary antibody-MMAF, cell titer glow assay)” value (shortened to “cytotoxicity”) [1] read?
The value was ~30 % greater cytotoxicity compared to WT datopotamab.

B2: MYT12440 (antibody, human IgG1, V domains shown)
VH: QVQLQESGPGLVKPSETLSLTCTVSGGSISSYGVHWIRQPPGKGLEWIGVIWTSGVTDYNSALMGRVTISVDTSKNQFSLKLSSVTAADTAVYYCARDGDYDRYTMDYWGQGTLVTVSS
VL: DIVMTQSPDSLAVSLGERATINCRASKSVSTSGYSYMHWYQQKPGQPPKLLIYLASNLHSGVPDRFSGSGSGTDFTLTISSLQAEDVAVYYCHHSRELPYTFGQGTKLEIK
Which “cytotoxicity” value [1] does the source give for B2 here?
Its value is ~30 % greater cytotoxicity compared to WT datopotamab.

B3: MYT11770 (antibody, human IgG1, V domains shown)
VH: QVQLQESGPGLVKPSETLSLTCTVSGGSISSYGVHWIRQPPGKGLEWIGVIWTSGVTDYNSALMGRVTISVDTSKNQFSLKLSSVTAADTAVYYCARDGDYDRYTMDYWGQGTLVTVSS
VL: DIVMTQSPDSLAVSLGERATINCRASKSVSTSGYSYMHWYQQKPGQPPKLLIYLASNLESGVPDRFSGSGSGTDFTLTISSLQAEDVAVYYCQHSRHLPYTFGQGTKLEIK
How did the “cytotoxicity” value [1] turn out when B3 was run?
Its value is ~30 % greater cytotoxicity compared to WT datopotamab.

B4: MYT13444 (antibody, V domains shown)
VH: QVQLQESGPGLVKPSETLSLTCTVSGGSISSYGVHWIRQPPGKGLEWIGVIWTSGHTDYNSALMGRVTISVDTSKNQFSLKLSSVTAADTAVYYCARDGDYDRYTMDYWGQGTLVTVSS
VL: DIVMTQSPDSLAVSLGERATINCRASKSVSTSGYSYMHWYQQKPGQPPKLLIYLASNLHSGVPDRFSGSGSGTDFTLTISSLQAEDVAVYYCQHSRELPYHFGQGTKLEIK
notes: Full-length IgG from Expi293 supernatant; also called hu7E6SVG heavy chain and light chain pairing variant
Does B4 bind [2]?
Result: no binding (tested: 50 nM)

B5: MYT13439 (antibody, V domains shown)
VH: QVQLQESGPGLVKPSETLSLTCTVSGGSISSYGVHWIRQPPGKGLEWIGVIWTSGHTDYNSALMGRVTISVDTSKNQFSLKLSSVTAADTAVYYCARDGDYDRYTMDYWGQGTLVTVSS
VL: DIVMTQSPDSLAVSLGERATINCRASKSVSTSGYSYMHWYQQKPGQPPKLLIYLASNLHSGVPDRFSGSGSGTDFTLTISSLQAEDVAVYYCQASRELPYTFGQGTKLEIK
notes: as for B4
Does B5 bind [2]?
Result: no binding (tested: 50 nM)

B6: MYT12431 (hu7E6SVG variant, HCV substitutions at 33, 51, 106) (antibody, V domains shown)
VH: QVQLQESGPGLVKPSETLSLTCTVSGGSISSYHVHWIRQPPGKGLEWIGVHWTSGVTDYNSALMGRVTISVDTSKNQFSLKLSSVTAADTAVYYCARDGDYDRYTHDYWGQGTLVTVSS
VL: DIVMTQSPDSLAVSLGERATINCRASKSVSTSGYSYMHWYQQKPGQPPKLLIYLASNLESGVPDRFSGSGSGTDFTLTISSLQAEDVAVYYCQHSRELPYTFGQGTKLEIK
Does B6 bind [3]?
Result: no binding (tested: 50 nM)

B7: MYT13447 (antibody, V domains shown)
VH: QVQLQESGPGLVKPSETLSLTCTVSGGSISSYGVHWIRQPPGKGLEWIGVIWTSGVTDYNSALMGRVTISVDTSKNQFSLKLSSVTAADTAVYYCARDGDYDRYTHDYWGQGTLVTVSS
VL: DIVMTQSPDSLAVSLGERATINCRASKSVSTSGYSYMHWYQQKPGQPPKLLIYLASNLHSGVPDRFSGSGSGTDFTLTISSLQAEDVAVYYCQHSRELPYHFGQGTKLEIK
notes: as for B4
Does B7 bind [2]?
Result: no binding (tested: 50 nM)

B8: MYT13438 (antibody, V domains shown)
VH: QVQLQESGPGLVKPSETLSLTCTVSGGSISSYGVHWIRQPPGKGLEWIGVHWTSGVTDYNSALMGRVTISVDTSKNQFSLKLSSVTAADTAVYYCARDGDYDRYTMDYWGQGTLVTVSS
VL: DIVMTQSPDSLAVSLGERATINCRASKSVSTSGYSYMHWYQQKPGQPPKLLIYLASNLHSGVPDRFSGSGSGTDFTLTISSLQAEDVAVYYCQASRELPYTFGQGTKLEIK
notes: as for B4
Does B8 bind [2]?
Result: no binding (tested: 50 nM)

B9: MYT13442 (antibody, V domains shown)
VH: QVQLQESGPGLVKPSETLSLTCTVSGGSISSYGVHWIRQPPGKGLEWIGVIWTSGVTDYNSALMGRVTISVDTSKNQFSLKLSSVTAADTAVYYCARDGDYDRYTHDYWGQGTLVTVSS
VL: DIVMTQSPDSLAVSLGERATINCRASKSVSTSGYSYMHWYQQKPGQPPKLLIYLASNLHSGVPDRFSGSGSGTDFTLTISSLQAEDVAVYYCQASRELPYTFGQGTKLEIK
notes: as for B4
Does B9 bind [2]?
Result: no binding (tested: 50 nM)

B10: MYT12375 (antibody, human IgG1, V domains shown)
VH: QVQLQQSGSELKKPGASVKVSCKASGYTFTNYGMNWVKQAPGQGLKWMGWINTYTGEPTYTDDFKGRFAFSLDTSVSTAYLQISSLKADDTAVYFCARGGFGSSYWYFDVWGQGSLVTVSS
VL: DIQLTQSPSSLSASVGDRVSITCKASQDVSIAVAWYQQKPGKAPKLLIYSHSHRYTGVPDRFSGSGSGTDFTLTISSLQPEDFAVYYCQQHYHTPLTFGAGTKVEIK
How did the “cytotoxicity” value [1] turn out when B10 was run?
The value was ~27 % greater cytotoxicity compared to WT datopotamab.

B11: MYT11682 (antibody, human IgG1, V domains shown)
VH: QVQLVQSGAEVKKPGASVKVSCKASGYTFTTAGMQWVRQAPGQGLEWMGWINTHSGVPKYAEDFKGRVTISADTSTSTAYLQLSSLKSEDTAVYYCARSGFGSSYWYFDVWGQGTLVTVSS
VL: DIQMTQSPSSLSASVGDRVTITCKASQDHSTAVAWYQQKPGKAPKLLIYSASYRYTGVPSRFSGSGSGTDFTLTISSLQPEDFAVYYCQQHYITPLTFGQGTKLEIK
How did the “cytotoxicity” value [1] turn out when B11 was run?
The value was ~20 % greater cytotoxicity compared to WT datopotamab.

B12: MYT11643 (antibody, V domains shown)
VH: QVQLVQSGAEVKKPGASVKVSCKASGYTFTTAHMQWVRQAPGQGLEWMGWINTHSGVPKYAEDFKGRVTISADTSTSTAYLQLSSLKSEDTAVYYCARSGFGSSYWYFDVWGQGTLVTVSS
VL: DIQMTQSPSSLSASVGDRVTITCKASQDVSTAVAWYQQKPGKAPKLLIYSASYRYTGVPSRFSGSGSGTDFTLTISSLQPEDFAVYYCQQHYITPLTFGQGTKLEIK
notes: IgG from supernatant; His at HCV position 33; also called datopotamab variant H1 08
Does B12 bind [4]?
Result: no binding (tested: 50 nM)

B13: MYT11665 (antibody, V domains shown)
VH: QVQLVQSGAEVKKPGASVKVSCKASGYTFTTAGMQWVRQAPGQGLEWMGWINTHSGVPKYAEDFKGRVTISADTSTSTAYLQLSSLKSEDTAVYYCARHGFGSSYWYFDVWGQGTLVTVSS
VL: DIQMTQSPSSLSASVGDRVTITCKASQDVSTAVAWYQQKPGKAPKLLIYSASYRYTGVPSRFSGSGSGTDFTLTISSLQPEDFAVYYCQQHYITPLTFGQGTKLEIK
notes: IgG from supernatant; His at HCV position 99; also called datopotamab variant H3 03
Does B13 bind [4]?
Result: no binding (tested: 50 nM)

B14: MYT11668 (antibody, V domains shown)
VH: QVQLVQSGAEVKKPGASVKVSCKASGYTFTTAGMQWVRQAPGQGLEWMGWINTHSGVPKYAEDFKGRVTISADTSTSTAYLQLSSLKSEDTAVYYCARSGFHSSYWYFDVWGQGTLVTVSS
VL: DIQMTQSPSSLSASVGDRVTITCKASQDVSTAVAWYQQKPGKAPKLLIYSASYRYTGVPSRFSGSGSGTDFTLTISSLQPEDFAVYYCQQHYITPLTFGQGTKLEIK
notes: IgG from supernatant; also called datopotamab variant H3 06
Does B14 bind [4]?
Result: no binding (tested: 50 nM)

B15: MYT11663 (antibody, V domains shown)
VH: QVQLVQSGAEVKKPGASVKVSCKASGYTFTTAGMQWVRQAPGQGLEWMGWINTHSGVPKYAEDFKGRVTISADTSTSTAYLQLSSLKSEDTAVYYCHRSGFGSSYWYFDVWGQGTLVTVSS
VL: DIQMTQSPSSLSASVGDRVTITCKASQDVSTAVAWYQQKPGKAPKLLIYSASYRYTGVPSRFSGSGSGTDFTLTISSLQPEDFAVYYCQQHYITPLTFGQGTKLEIK
notes: IgG from supernatant; His at HCV position 97; also called datopotamab variant H3 01
Does B15 bind [4]?
Result: no binding (tested: 50 nM)

B16: MYT11666 (antibody, V domains shown)
VH: QVQLVQSGAEVKKPGASVKVSCKASGYTFTTAGMQWVRQAPGQGLEWMGWINTHSGVPKYAEDFKGRVTISADTSTSTAYLQLSSLKSEDTAVYYCARSHFGSSYWYFDVWGQGTLVTVSS
VL: DIQMTQSPSSLSASVGDRVTITCKASQDVSTAVAWYQQKPGKAPKLLIYSASYRYTGVPSRFSGSGSGTDFTLTISSLQPEDFAVYYCQQHYITPLTFGQGTKLEIK
notes: IgG from supernatant; His at HCV position 100; also called datopotamab variant H3 04
Does B16 bind [4]?
Result: no binding (tested: 50 nM)

B17: MYT11672 (antibody, V domains shown)
VH: QVQLVQSGAEVKKPGASVKVSCKASGYTFTTAGMQWVRQAPGQGLEWMGWINTHSGVPKYAEDFKGRVTISADTSTSTAYLQLSSLKSEDTAVYYCARSGFGSSYHYFDVWGQGTLVTVSS
VL: DIQMTQSPSSLSASVGDRVTITCKASQDVSTAVAWYQQKPGKAPKLLIYSASYRYTGVPSRFSGSGSGTDFTLTISSLQPEDFAVYYCQQHYITPLTFGQGTKLEIK
notes: IgG from supernatant; also called datopotamab variant H3 10
Does B17 bind [4]?
Result: no binding (tested: 50 nM)

B18: MYT11669 (antibody, V domains shown)
VH: QVQLVQSGAEVKKPGASVKVSCKASGYTFTTAGMQWVRQAPGQGLEWMGWINTHSGVPKYAEDFKGRVTISADTSTSTAYLQLSSLKSEDTAVYYCARSGFGHSYWYFDVWGQGTLVTVSS
VL: DIQMTQSPSSLSASVGDRVTITCKASQDVSTAVAWYQQKPGKAPKLLIYSASYRYTGVPSRFSGSGSGTDFTLTISSLQPEDFAVYYCQQHYITPLTFGQGTKLEIK
notes: IgG from supernatant; also called datopotamab variant H3 07
Does B18 bind [4]?
Result: no binding (tested: 50 nM)
